From US20050070692A1 (published 2005)

T1: cynomolgus monkey IL-1β (cynomolgus monkey, UniProt P79182 117-268)
T1 construct: also called Cynomolgus IL-1β
T1 sequence (looked up): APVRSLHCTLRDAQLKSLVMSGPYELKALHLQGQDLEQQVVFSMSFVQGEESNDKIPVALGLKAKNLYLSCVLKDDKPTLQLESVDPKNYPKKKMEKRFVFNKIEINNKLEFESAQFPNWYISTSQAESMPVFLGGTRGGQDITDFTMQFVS


Legend:
human IL-1β [1] = target: T2, human IL-1β (human, UniProt P01584 117-269); assay: cell-based or functional assay
human IL-1β [2] = target: T2, human IL-1β; assay: BIAcore, antibody captured on anti-IgG CM5 chip, IL-1β flowed
Protocol: (§1) Affinities and specificities of both Hu007 and Mu007 were determined using BlAcore measurements. BIAcore™ is an automated biosensor system that measures molecular interactions. (Karlsson, et al. (1991) J. Immunol. Methods 145: 229-240). In these experiments antibody was immobilized at low density on a BIAcore™ chip. Ethyl-dimethylaminopropyl-carbodiimide (EDC) was used to couple reactive amino groups to purified goat anti-human IgG or goat anti-rabbit IgG to a flow cell of a carboxy-methyl (CM5) BIAcore™ sensor chip. Goat IgG was diluted in sodium acetate buffer, pH 4.0, and immobilized on a flow cell of a CM5 chip using EDC to yield 1000 response units. Unreacted sites were blocked with ehanolamine. A flow rate of 60 μL/min was used. Multiple binding/elution cycles were performed by injection a 100 μL solution of 15 μg/mL Mu007 or Hu007 followed by human IL-1β, mouse IL-1β, rat IL-1β, cynomolgus monkey IL-1β, porcine IL-1β, human IL-1 receptor antagonist, and human IL-1α at decreasing concentrations for each cycle (e.g., 1500, 750, 375, 188, 94, 47, 23.5, 12, and 0 picomolar). Elution was performed with glycine-HCl, pH 1.5. BIAevaluation™ was used to analyze the kinetic data. Table 2 depicts the affinities of Hu007 and Mu007 for human and cynomolgus IL-1β. […] Cynomolgus and porcine IL-1β had 100% binding to Hu007 relative to human IL-1β.

cynomolgus monkey IL-1β = target: T1, cynomolgus monkey IL-1β; assay: as above
Protocol: as §1

human IL-1β [3] = target: T2, human IL-1β; assay: competition ELISA on coated human IL-1β against biotinylated Mu007, Exp. A
Protocol: (§2) Wells of 96-well ELISA plates (Nunc-lmmuno plate, Cat # 439454, NalgeNunc) were coated with 100 μL of 0.5. μg/mL of human IL-1β in 0.2M sodium carbonate-bicarbonate buffer (pH 9.4) overnight at 4° C., washed with Wash Buffer, blocked with Superblock blocking buffer for 30 min at 37° C., and washed again with Wash Buffer. A mixture of biotinylated Mu007 (0.16 μg/mL final concentration) and competitor antibody (Mu007, Hu007, or Hu007 analogs starting at 100 μg/mL final concentration and serial 3-fold dilutions) in ELISA Buffer were added in triplicate in a final volume of 100 μL per well. As a no-competitor control, 100 μL of 0.16 μg/mL biotinylated Mu007 was used. As a background control, 100 gLL of ELISA Buffer was used. ELISA plates were incubated at 37° C. for 2 hr. After washing the wells with Washing Buffer, 100 μL of 1 μg/mL HRP-conjugated streptavidin (Jackson ImmunoResearch) was added to each well. ELISA plates were incubated at room temperature for 30 min and washed with Washing Buffer. For color development, 100 μL/well of ABTS substrate was added. Color development was stopped by adding 100 μL/well of 2% oxalic acid. Absorbance was read at 415 nm.
(§3) Mu007, Hu007 and Hu007 analogs competed with biotinylated Mu007 in a concentration-dependent manner. The IC₅₀ values of Mu007 and Hu007 in three independent ELISA competition experiments, obtained using the computer software Prism (GraphPad Software Inc., San Diego, Calif.) are shown in Table 1. The relative binding of Hu007 was on average 89% of Mu007.

human IL-1β [4] = target: T2, human IL-1β; assay: competition ELISA on coated human IL-1β against biotinylated Mu007, Exp. B
Protocol: as §2, §3

human IL-1β [5] = target: T2, human IL-1β; assay: competition ELISA on coated human IL-1β against biotinylated Mu007, Exp. C
Protocol: as §2, §3

human IL-1β [6] = target: T2, human IL-1β; assay: competition ELISA on coated human IL-1β against biotinylated Mu007, average of three experiments
Protocol: as §2
Mu007, Hu007 and Hu007 analogs competed with biotinylated Mu007 in a concentration-dependent manner. […]

human IL-1β [7] = target: T2, human IL-1β; assay: cell-based or functional assay; remark: listed apart in the source
human IL-1β [8] = target: T2, human IL-1β; assay: BIAcore, antibody captured on protein A CM5 chip, human IL-1β flowed
Protocol: (§4) Affinities and specificities of several Hu007 analogs were determined using BIAcore measurements. BIAcore™ is an automated biosensor system that measures molecular interactions. (Karlsson, et al. (1991) J. Immunol. Methods 145: 229-240). In these experiments antibody was immobilized at low density on a BIAcore™ chip. Ethyl-dimethylaminopropyl-carbodiimide (EDC) was used to couple reactive amino groups to protein A to a flow cell of a carboxy-methyl (CM5) BIAcore™ sensor chip. Protein A was diluted in sodium acetate buffer, pH 4.5, and immobilized on a flow cell of a CM5 chip using EDC to yield approximately 1000 response units. Unreacted sites were blocked with ethanolamine. A flow rate of 60 μl/min was used. Multiple binding/elution cycles were performed by injection of 10 μl of a 5 μg/mL Hu007 solution, and heavy chain CDR2 analogs N55D, N55S, N55Q, G56A, and G56V, followed by human IL-1β at decreasing concentrations for each cycle (e.g. 1500, 750, 375, 188, and […]). Elution was performed with glycine-HCl, pH 1.5. BIAevaluation™ was used to analyze the kinetic data. Table 5 depicts the affinities of Hu007 and the various Hu007 analogs for human IL-1β.

human IL-1β [9] = target: T2, human IL-1β; assay: BIAcore (Example 13)
Protocol: as §4

Row | IC50, inhibition of human IL-1β stimulated proliferation (human IL-1β [7]) | Kd (human IL-1β [8]) | Binder | further results
1 |  |  | mouse monoclonal antibody Mu007 (antibody, V domains shown) VH: QVQLVQSGAEVKKPGASVKVSCKVSGYTFSRYWIEWVRQAPGKGLEWIGEILPGNGNINYNEKFKGKATITADTSTDTAYMELSSLRSEDTAVYYCSTIYYDYDQGFTYWGQGTLVTVSA VL: DIKMTQSPSSMYASLGERVTITCKASQDIDRYLSWFQQKPGKSPKTLIYRVKRLVDGVPSRFSGSASGQDYSLTISSLQYEDMGIYYCLQYDEFPYTFGGGTKLEIK | IC50, inhibition of IL-1β stimulated proliferation of T1165.17 cells (3H-thymidine), average of three experiments (human IL-1β [1]): 0.22 nM; Kd (human IL-1β [2]): 0.0062 nM; Kd (cynomolgus monkey IL-1β): 0.0073 nM; IC50 (human IL-1β [3]): 0.4 µg/mL; IC50 (human IL-1β [4]): 0.4 µg/mL; IC50 (human IL-1β [5]): 0.39 µg/mL; IC50 (human IL-1β [6]): 0.4 µg/mL
2 | 2500 Picomolar | 0.257 nM | Hu007 analog N55Q (antibody, human IgG1, kappa, V domains shown, IgG1; Heavy chain of Hu007 with N55Q, co-transfected with the WT Hu007 light chain) VH: QVQLVQSGAEVKKPGASVKVSCKVSGYTFSRYWIEWVRQAPGKGLEWIGEILPGQGNINYNEKFKGKATITADTSTDTAYMELSSLRSEDTAVYYCSTIYYDYDQGFTYWGQGTLVTVSS VL: DIQMTQSPSSLSASVGDRVTITCKASQDIDRYLSWFQQKPGKAPKSLIYRVKRLVDGVPSRFSGSASGTDYTLTISSLQPEDFATYYCLQYDEFPYTFGQGTKLEIKR | 
3 | 1100 Picomolar | 0.149 nM | Hu007 analog N55D (antibody, human IgG1, kappa, V domains shown, IgG1; Heavy chain of Hu007 with N55D, co-transfected with the WT Hu007 light chain; It mimics fully deamidated Hu007; also called heavy chain CDR2 analog N55D) VH: QVQLVQSGAEVKKPGASVKVSCKVSGYTFSRYWIEWVRQAPGKGLEWIGEILPGDGNINYNEKFKGKATITADTSTDTAYMELSSLRSEDTAVYYCSTIYYDYDQGFTYWGQGTLVTVSS VL: DIQMTQSPSSLSASVGDRVTITCKASQDIDRYLSWFQQKPGKAPKSLIYRVKRLVDGVPSRFSGSASGTDYTLTISSLQPEDFATYYCLQYDEFPYTFGQGTKLEIKR | fold loss of binding affinity against Hu007 (human IL-1β [9]): ~15 fold
4 | 184 Picomolar | 0.0336 nM | Hu007 analog G56A (antibody, human IgG1, kappa, V domains shown, IgG1; Heavy chain of Hu007 with G56A, co-transfected with the WT Hu007 light chain) VH: QVQLVQSGAEVKKPGASVKVSCKVSGYTFSRYWIEWVRQAPGKGLEWIGEILPGNANINYNEKFKGKATITADTSTDTAYMELSSLRSEDTAVYYCSTIYYDYDQGFTYWGQGTLVTVSS VL: DIQMTQSPSSLSASVGDRVTITCKASQDIDRYLSWFQQKPGKAPKSLIYRVKRLVDGVPSRFSGSASGTDYTLTISSLQPEDFATYYCLQYDEFPYTFGQGTKLEIKR | 
5 | 395 Picomolar | 0.0732 nM | Hu007 analog G56V (antibody, human IgG1, kappa, V domains shown, IgG1; Heavy chain of Hu007 with G56V, co-transfected with the WT Hu007 light chain) VH: QVQLVQSGAEVKKPGASVKVSCKVSGYTFSRYWIEWVRQAPGKGLEWIGEILPGNVNINYNEKFKGKATITADTSTDTAYMELSSLRSEDTAVYYCSTIYYDYDQGFTYWGQGTLVTVSS VL: DIQMTQSPSSLSASVGDRVTITCKASQDIDRYLSWFQQKPGKAPKSLIYRVKRLVDGVPSRFSGSASGTDYTLTISSLQPEDFATYYCLQYDEFPYTFGQGTKLEIKR | 
6 | 184 Picomolar | 0.0281 nM | Hu007 analog N55S (antibody, human IgG1, kappa, V domains shown, IgG1; also called heavy chain CDR2, N55S) VH: QVQLVQSGAEVKKPGASVKVSCKVSGYTFSRYWIEWVRQAPGKGLEWIGEILPGSGNINYNEKFKGKATITADTSTDTAYMELSSLRSEDTAVYYCSTIYYDYDQGFTYWGQGTLVTVSS VL: DIQMTQSPSSLSASVGDRVTITCKASQDIDRYLSWFQQKPGKAPKSLIYRVKRLVDGVPSRFSGSASGTDYTLTISSLQPEDFATYYCLQYDEFPYTFGQGTKLEIKR | fold of the binding affinity of Hu007 (human IL-1β [9]): ≤ 3 fold
